Patent publication US20240158512A1 (TRUEBINDING, published 2024)

Molecular target: T1, Galectin-3 (Gal3) (UniProt P17931 1-250, limits assumed)
T1 construct: Target of TB006
Test: BLI; 50 mg/mL DS after -80 C for 6 months

T1 sequence (P17931 whole entry): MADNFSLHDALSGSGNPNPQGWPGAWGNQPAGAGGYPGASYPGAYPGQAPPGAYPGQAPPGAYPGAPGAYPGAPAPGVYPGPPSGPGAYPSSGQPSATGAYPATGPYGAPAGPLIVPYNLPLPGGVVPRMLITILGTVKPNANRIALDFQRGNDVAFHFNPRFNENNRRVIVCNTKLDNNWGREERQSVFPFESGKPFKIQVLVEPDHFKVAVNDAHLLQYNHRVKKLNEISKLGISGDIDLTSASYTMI

B1: TB006 (antibody, human IgG4 S228P, kappa, V domains shown)
VH: QVQLVQSGAEVKKPGASVKVSCKASGYSFTNYYMHWVRQAPGQRLEWMGWIYPGSGNTNYNEKFQGRVTITADTSASTAYMELSSLRSEDTAVYYCSTAPGGFDVWGQGTTVTVSS
VL: DIVMTQTPLSLSVTPGQPASISCKSSKSLLHSDGITYLYWYLQKPGQSPQLLIYRMSNLASGVPDRFSGSGSGTDFTLKISRVEAEDVGVYYCAQMLEFPLTFGQGTKLEIKR
notes: Full antibody tested as drug substance (DS) in 20 mM L-histidine, 5 mM methionine, 100 mM NaCl, 0.02% polysorbate-80, pH 5.8; also called 4A11.H3L1; IMT006a
- Kd: 1.8 nM
